Laboratory results reported in patent US20240199757A1 (UNIVERSITY OF CHICAGO, published 2024).
Numbering of substitutions follows the chain as printed.

Assays:
[1] = biological target: T1, Full-length human NT5E (recombinant, in-house) (human, UniProt P21589 27-549); experiment: SPR, His-captured NT5E, 1 mM ATP
T1 construct: also called hNT5E; hNT5EWT
T1 sequence: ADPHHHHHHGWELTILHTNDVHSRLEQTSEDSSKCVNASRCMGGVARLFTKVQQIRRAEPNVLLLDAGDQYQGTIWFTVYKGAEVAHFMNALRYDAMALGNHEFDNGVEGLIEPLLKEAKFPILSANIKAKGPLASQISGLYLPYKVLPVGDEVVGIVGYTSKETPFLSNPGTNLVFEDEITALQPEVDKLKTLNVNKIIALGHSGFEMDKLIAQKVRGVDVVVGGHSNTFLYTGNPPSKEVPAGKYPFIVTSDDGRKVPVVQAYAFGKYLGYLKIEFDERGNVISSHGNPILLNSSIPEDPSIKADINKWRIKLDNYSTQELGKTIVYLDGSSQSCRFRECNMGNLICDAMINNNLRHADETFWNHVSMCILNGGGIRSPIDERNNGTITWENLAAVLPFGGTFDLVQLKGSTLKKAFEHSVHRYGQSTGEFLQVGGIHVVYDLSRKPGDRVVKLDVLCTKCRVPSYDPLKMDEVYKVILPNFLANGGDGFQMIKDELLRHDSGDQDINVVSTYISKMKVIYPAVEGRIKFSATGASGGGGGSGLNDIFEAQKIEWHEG
Procedure: (§1) All SPR experiments were performed at 25° C. using MASS-1 (Bruker) instrument. hNT5E, mNT5E and cNT5E were immobilized onto a nitrilotriacetic acid (NTA) sensor chip via His-tag. For kinetic experiments, after ligand immobilization, 2-fold serial dilutions of the Fabs were injected. After double-reference subtraction data were analyzed with BiaEvaluation (GE Healthcare) or Sierra Analyser (Bruker) software. The experiments were carried in buffers in presence and absence of 1 mM ATP to compare the kinetic parameters of the Fabs binding to closed and open form of NT5E.

[2] = biological target: T2, Full-length cynomolgus NT5E (recombinant) (cynomolgus, UniProt P21589 27-549 (human entry)); experiment: SPR, His-captured NT5E, 1 mM ATP
T2 construct: also called cNT5E; cyno NT5E
T2 chain: T1 sequence with M209T, T363M, V476I
Procedure: as §1

[3] = biological target: T3, murine NT5E expressed on 4T1 cells (murine, UniProt Q61503 29-551); experiment: flow cytometry on 4T1 cells, 1 mM ATP; +ATP (1 mM), 4T1 cells
T3 construct: whole, on cells; also called mouse NT5E-expressing 4T1 cells
T3 sequence (looked up): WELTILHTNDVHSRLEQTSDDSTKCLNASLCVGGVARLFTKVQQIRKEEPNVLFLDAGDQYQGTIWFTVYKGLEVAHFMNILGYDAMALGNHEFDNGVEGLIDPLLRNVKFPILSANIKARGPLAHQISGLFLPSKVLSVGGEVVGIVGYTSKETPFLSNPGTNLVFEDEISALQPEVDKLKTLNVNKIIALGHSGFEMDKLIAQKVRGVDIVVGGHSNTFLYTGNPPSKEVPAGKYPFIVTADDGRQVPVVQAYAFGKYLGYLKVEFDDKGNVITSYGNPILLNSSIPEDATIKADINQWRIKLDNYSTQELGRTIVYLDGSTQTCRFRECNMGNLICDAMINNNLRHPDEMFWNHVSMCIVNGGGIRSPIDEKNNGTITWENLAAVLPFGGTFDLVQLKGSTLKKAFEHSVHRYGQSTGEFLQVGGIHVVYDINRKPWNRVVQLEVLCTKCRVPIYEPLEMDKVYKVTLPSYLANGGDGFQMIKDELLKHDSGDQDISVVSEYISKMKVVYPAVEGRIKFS
Procedure: (§2) Human MDA-MB-231 cells and murine 4T1 cells were grown to 90% confluency, detached with 5 mM EDTA for 15 min at 37° C. and then resuspended in 37° C. lx PBS (#10010031, Gibco) supplemented with 1% FBS and 1OpM ZnCl2. Separate working buffers (WB) of PBS and 1% FBS with or without fixed nucleotide concentrations were used throughout all washing steps to maintain constant condition. In 96-well plates (#3799, Costar), 0.2×10⁶ cells were added per well. The plates were spun at 500×g for 5 min and the supernatant was removed. Anti-NT5E antibodies were diluted to the desired concentration in 100 μL WB, added to the cells and the plates were incubated for 20 min at 37° C. Plates were spun and cells were washed twice with WB then spun a second time. Cells were stained with 100 μL of secondary antibody (Alexa Fluor 647 AffiniPure Goat Anti-Human IgG, F(ab′)2 fragment specific, #109-605-006, Jackson, 1:200) dilution and plates were incubated for 20 min at 37° C. Cells were washed twice with WB then fixed on ice with WB supplemented with 0.5% PFA. Fixing solution was removed by centrifugation and cells were resuspended in cold 1× PBS. Samples were analyzed by flow cytometry using CytoFLEX (Beckman Coulter) and mean fluorescence intensity (MFI) data was extracted using FlowJo software. Resulting binding data was plotted using OriginLab.

[4] = biological target: T3, murine NT5E expressed on 4T1 cells; experiment: flow cytometry on 4T1 cells, 1 mM ATP
Procedure: as §2

B1: 1789 Fab (Fab, V domains shown)
VH: EVQLVESGGGLVQPGGSLRLSCAASGFNVSYSSIHWVRQAPGKGLEWVASISSSSGYTYYADSVKGRFTISADTSKNTAYLQMNSLRAEDTAVYYCARNYWGWYPFYYFAFDYWGQGTLVTV
VL: DIQMTQSPSSLSASVGDRVTITCRASQSVSSAVAWYQQKPGKAPKLLIYSASSLYSGVPSRFSGSRSGTDFTLTISSLQPEDFATYYCQQGWDYPITFGQGTKVEIKR
- Kd [1]: 42 nM
- koff [1]: 0.0073 s⁻¹
- kon [1]: 170000 M⁻¹ s⁻¹
- Kd [2]: 32 nM
- koff [2]: 0.0051 s⁻¹
- kon [2]: 160000 M⁻¹ s⁻¹

B2: 1789 IgG (antibody, V domains shown)
VH: EVQLVESGGGLVQPGGSLRLSCAASGFNVSYSSIHWVRQAPGKGLEWVASISSSSGYTYYADSVKGRFTISADTSKNTAYLQMNSLRAEDTAVYYCARNYWGWYPFYYFAFDYWGQGTLVTVSS
VL: B1 VL
- EC50 [3]: 37 nM
- EC50 [4]: 37.3 nM
